# Source: the supplement of paper PMC12455559
# Assay: purified protein yield per well (BCA); higher = higher soluble expression
# Summary of the method: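 On an OT-2 robot, lysed cells were processed by binding protein to Ni-charged magnetic beads and releasing it with SUMO protease. Expression took place in E. coli C41(DE3), in 2 mL autoinduction cultures with 100 µg/mL kanamycin, for 2 h at 37 °C followed by 40 h at 18 °C. The Pierce Rapid Gold BCA kit was used to quantify purified protein yield in each well, with values under 25 ug (0.1 mg/mL) below the detection threshold.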
row,Sequence,purified protein yield per well [µg]
1,MSGFGGGTIYYPSGTTGTMAAIVVIPGYVSSQSSIEWWGPRLASNGFVVMTIDTNATTDQPPARARQINAALDYLIAQNRASGSPVNGMIDTSRLGVVGWSMGGGGTLRVASEGRIKAAIPLAPWDTTTFRNVKAPTLIFACESDTIAPVRNHASPFYNQVPTSIPKAFVQLNRGNHYCANGGNAFNADLSRLGVSWMKRFLDNDRRFSQFLCGPNHTSDRDISEYRGNCPY [TEP104],< 25
2,RPSSAATSLAATQRGPDPTVAMIEATRGPFATAQVSVPSGHGFGGGMIYYPTDTSLGTWGALAIVPGYSALFANEEAWMGPWLSSFGFVVIGVETNTRTDSDSQRAAELQAALDYLTTQSPVRNQVDPTRLSVLGHSAGGAGAIEEAEQHPSLRALIGLAPGFPGQGLSMATDKVPSLIIGGQADGTVTPSYLANLYGTLPASTQSAFAQIAGADHVYYTHPNNVEMKLIIPWLKLFVDGDNRYQQFLCPALPDPSTISAYQPKCPYTPPGGSTSSSSSSTTTTTTTTSTTPTSTSSSPSGSCSATYQTQNYWPGGFQGLVTVTAGSAPISKWTVKWTLSSGQTITQVWNGTLSTSGSAVSVANVSYNGSLSPGTSTTFGFLANGPTSAPTLSCTGS [ESM039],< 25
3,ENPHERGPDPTEESVTAPTGPFDTDTENVSSLVSGFGGGTIYYPTDDSEGTFGGVVVAPGYTASESSMSWYGERIASQGFVVFTIDTNTRYDQPNSRGRQMESALDYLVEDSDVDDMVDGDRLALMGHSMGGGGTLAAAEDRPELRAAIPLTPWHLSKDWSDVEVPTMIVGAENDSIASTRSHAVPLYESLDEDLDSTYLELRNATHFAPNISNTTIAKYSISWLKRFVDDDVRYEQFLCPAPDTGFGTDFSDYRDSCPHGGSV [DP041],< 25
4,MLRVTHHPPPGGTDSARTRTALPAPGAAPPRPGLPRRRGRLVTLAAAGIAAALVGLFTMTVATGTASAADNPYQRGPDPTRSSVASVNGPFANTSVAVPTGYGFNGGRIYYPTDTSQGTFGAVAISPGYNALFSAELAWMGPWLASHGFVVIGIETNSRNDFDTARGTQLLAALDYLVQQSPVRDRIDPNRLAVSGHSMGGGGALSAALRRSSLKAAVGIAPYSPSSNLANDRVPTMVFAGQADTVVTPSYATGLYNSLPVTTESAYLEVAGADHGFMVGRSNPVLIRTMLPFLKMFVDNDARYSQFLCPLADNNGVVSYRSTCPLLPSTPTTPPPTPSDTPPPTPSQTPTSSPTGNPPGTASLIVGAQSNRCLDVPNASRANGTRVQLWDCNRQANQSWTYTSGKQLRVYGDMCLDAAGSGNGAAVQIYGCHSQTNQQWNVNANGTISSVQSGRCLDVWSTANGAQVQLYDCHGQTNQRFTLTPLT [TEP176],< 25
5,FTASQSSIQWYGPLLAGEGFVVITIDTNTIFDQPDSRATQLLAALDYLTGSSDVRHIVDPNRLAVAGWSMGGGGSLEAAVRRPSLKAAIPLAGWHTTKTFNTAVPTLVVACENDAVAGNAQHSGPFYDGLPASTPKAYLEIAGGDHTCVGSYDINIATPVVAWAKRWVNGDTSASAQLCPPKPIGGPISDSKANCPY [ESM171],< 25
6,YQRGPDPTRSALTADGPFSVTTYTVSRYAVTGFGGGVIYYPTGTSLTFGGIAVSPGYTADASSLAWFGRRLASHGFVVLVINTNSRFDFPDSRASQLAAALDYLVSRSPSAVRARLDTSRLAVAGHSMGGGATLRISENRPSLKAAVPLTPWHTDKTFNTAVPQLIIGAENDTVAPVSDHAIPFYQNLPSTTPKVYLELNNASHF [TEP127],< 25
7,AAPVHHAVTRPVAAHHPVTRPVPRPVVAHAPQPPAVDQIVVPATADARFGGGTIFAPRGAGQKVLGSVVVTPGFHGRKSDMAVYGTELAAEGFVVFTIDTRDRADLPDQRATEMLAAADYLTGRSAVKGEVSPDRVALLGYSMGGGGTLQAAQERPSIKAALTLMPYDYPPAGDPKAVHPAYPELTVPTLIITGQKDATAIPAKFGKPAYDSIPAGTPKQYLQLTGLGHAAGMGKPTATIRAAITAFLERYLDGDTAYAKDICPAPKVGGPISASTSSCGTS [ESM119],< 25
8,VENGPVPTLADLKKDGPYAVTSQKVAGSGFGSGTIYSPNTAGKYALVAVCPGFVSAESSITDISRRLATHGFVVITIGTKTLLDFPSSRATQLLAALKTATTTTTGPVVGKIDTARQVVSGWSMGGGGTLEAAGITPGLKAAVAYAPWHSTTTKIKTSTVPSIIFGATGDVVAPVASHSQKFYDVLPTSTKKQLAVLQGSNHFFPNSAIEPVSYSNISWVKRFADGDTRYSQFLSVADPAWSKVQSNGPF [ESM166],< 25
